Drawing on patent publication EP3917571B1, this text covers proximity ligation assay signal, fold increase in MDA ER-G2 over wild-type MDA cells for one molecule.

For this assay, the target named is ERp57 (PDIA3), human, endogenous in MDA-MB-231 ER-G2 cells (human) (UniProt P30101). Briefly: proximity ligation assay on live, intact cells (probes ab10286 and ab13506).
Sequence of UniProt P30101 (P30101 25-505): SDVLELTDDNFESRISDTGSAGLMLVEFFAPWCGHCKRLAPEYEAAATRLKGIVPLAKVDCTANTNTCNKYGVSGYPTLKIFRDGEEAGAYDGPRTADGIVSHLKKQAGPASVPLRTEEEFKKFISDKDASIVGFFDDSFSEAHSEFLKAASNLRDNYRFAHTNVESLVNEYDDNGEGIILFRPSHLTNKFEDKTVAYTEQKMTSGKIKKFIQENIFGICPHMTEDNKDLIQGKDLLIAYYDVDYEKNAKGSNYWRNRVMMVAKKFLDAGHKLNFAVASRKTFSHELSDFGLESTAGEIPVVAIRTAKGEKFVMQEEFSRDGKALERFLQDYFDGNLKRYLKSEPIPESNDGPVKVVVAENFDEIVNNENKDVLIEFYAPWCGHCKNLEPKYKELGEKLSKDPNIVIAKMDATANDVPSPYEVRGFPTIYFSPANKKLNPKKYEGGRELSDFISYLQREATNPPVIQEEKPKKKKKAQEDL

B1: Calnexin (Cnx), human, endogenous in MDA-MB-231 ER-G2 and Huh7 cells (protein, UniProt P27824 21-592, looked up)
chain: HDGHDDDVIDIEDDLDDVIEEVEDSKPDTTAPPSSPKVTYKAPVPTGEVYFADSFDRGTLSGWILSKAKKDDTDDEIAKYDGKWEVEEMKESKLPGDKGLVLMSRAKHHAISAKLNKPFLFDTKPLIVQYEVNFQNGIECGGAYVKLLSKTPELNLDQFHDKTPYTIMFGPDKCGEDYKLHFIFRHKNPKTGIYEEKHAKRPDADLKTYFTDKKTHLYTLILNPDNSFEILVDQSVVNSGNLLNDMTPPVNPSREIEDPEDRKPEDWDERPKIPDPEAVKPDDWDEDAPAKIPDEEATKPEGWLDDEPEYVPDPDAEKPEDWDEDMDGEWEAPQIANPRCESAPGCGVWQRPVIDNPNYKGKWKPPMIDNPSYQGIWKPRKIPNPDFFEDLEPFRMTPFSAIGLELWSMTSDIFFDNFIICADRRIVDDWANDGWGLKKAADGAAEPGVVGQMIEAAEERPWLWVVYILTVALPVFLVILFCCSGKKQTSGMEYKKTDAPQPDVKEEEEEKEEEKDKGDEEEEGEEKLEEKQKSDAEEDGGTVSQEEEDRKPKAEEDEILNRSPRNRKPRRE
modifications: O-GalNAc (Tn) glycosylation mapped at T50, T59, T66, T79, S81 and S86 after GALA activation
The molecule B1 yielded a proximity ligation assay signal, fold increase in MDA ER-G2 over wild-type MDA cells of 10 fold.
